The nature of the data set: total protein half-life in vivo (active degradation + dilution); higher = more stable protein.
Setting [1] is: E. coli NCM3722 delta-clpP delta-lon delta-hslV, growth: N-lim chemostat, doubling time 6 h.
[2] abbreviates: E. coli NCM3722 delta-clpP, growth: N-lim chemostat, doubling time 6 h.
Setting [3] is: E. coli NCM3722 delta-hslV, growth: N-lim chemostat, doubling time 6 h.
[4] abbreviates: E. coli NCM3722 delta-lon, growth: N-lim chemostat, doubling time 6 h.
[5] abbreviates: E. coli NCM3722 delta-smpB, growth: N-lim chemostat, doubling time 6 h.
Where [6] appears, read: wild type E. coli NCM3722, growth: C-lim chemostat, doubling time 3 h.
Setting [7] is: wild type E. coli NCM3722, growth: C-lim chemostat, doubling time 6 h.
The mark [8] stands for this setting: wild type E. coli NCM3722, growth: C-lim chemostat, doubling time 12 h.
The mark [9] stands for this setting: wild type E. coli NCM3722, growth: N-lim chemostat, doubling time 6 h.
The mark [10] stands for this setting: wild type E. coli NCM3722, growth: N-lim chemostat, doubling time 12 h.
Where [11] appears, read: wild type E. coli NCM3722, growth: P-lim chemostat, doubling time 6 h.
Setting [12] is: wild type E. coli NCM3722, growth: P-lim chemostat, doubling time 12 h.

± gives the standard deviation of the averaged measurements.

Here are results for seven sequences from the supplement of paper PMC11246515.

With “MSLFHLIAPSGYCIKQHAALRGIQRLTDAGHQVNNVEVIARRCERFAGTETERLEDLNSLARLTTPNTIVLAVRGGYGASRLLADIDWQALVARQQHDPLLICGHSDFTAIQCGLLAHGNVITFSGPMLVANFGADELNAFTEHHFWLALRNETFTIEWQGEGPTCRAEGTLWGGNLAMLISLIGTPWMPKIENGILVLEDINEHPFRVERMLLQLYHAGILPRQKAIILGSFSGSTPNDYDAGYNLESVYAFLRSRLSIPLITGLDFGHEQRTVTLPLGAHAILNNTREGTQLTISGHPVLKM”, the “total protein half-life in vivo” value under setting [1] stood at 4.96 ± 0.9 h; the “total protein half-life in vivo” value under setting [2] turned out to be 3.76 ± 0.25 h; the “total protein half-life in vivo” value under setting [3] was 4.05 ± 0.72 h; the “total protein half-life in vivo” value under setting [4] turned out to be 4.07 ± 0.22 h; the “total protein half-life in vivo” value under setting [5] was found to be 3.65 ± 0.53 h; the “total protein half-life in vivo” value under setting [6] turned out to be 3.13 ± 0.084 h. Also, the “total protein half-life in vivo” value worked out at 5 ± 0.86 h under setting [7]; 9.85 ± 0.41 h under setting [8]; 3.693 ± 0.016 h under setting [9]; 6.99 ± 0.87 h under setting [10]; 6.058 ± 0.043 h under setting [11]; 10.8 ± 0.56 h under setting [12].

On to “MPIRVPDELPAVNFLREENVFVMTTSRASGQEIRPLKVLILNLMPKKIETENQFLRLLSNSPLQVDIQLLRIDSRESRNTPAEHLNNFYCNFEDIQDQNFDGLIVTGAPLGLVEFNDVAYWPQIKQVLEWSKDHVTSTLFVCWAVQAALNILYGIPKQTRTEKLSGVYEHHILHPHALLTRGFDDSFLAPHSRYADFPAALIRDYTDLEILAETEEGDAYLFASKDKRIAFVTGHPEYDAQTLAQEFFRDVEAGLDPDVPYNYFPHNDPQNTPRASWRSHGNLLFTNWLNYYVYQITPYDLRHMNPTLD”, for which the “total protein half-life in vivo” value was determined as 3.26 ± 0.67 h under setting [1]; 1.85 ± 0.45 h under setting [2]; 1.61 ± 0.2 h under setting [3]; 1.87 ± 0.033 h under setting [4]; 1.52 ± 0.29 h under setting [5]; 2.61 ± 0.097 h under setting [6]. In addition, the “total protein half-life in vivo” value reads like this: under setting [7], 3.27 ± 0.32 h; under setting [8], 4.92 ± 0.52 h; under setting [9], 1.58 ± 0.093 h; under setting [10], 2.14 ± 0.23 h; under setting [11], 3.94 ± 0.39 h; under setting [12], 6.4 ± 0.19 h.

For the sequence “MFKPELLSPAGTLKNMRYAFAYGADAVYAGQPRYSLRVRNNEFNHENLQLGINEAHALGKKFYVVVNIAPHNAKLKTFIRDLKPVVEMGPDALIMSDPGLIMLVREHFPEMPIHLSVQANAVNWATVKFWQQMGLTRVILSRELSLEEIEEIRNQVPDMEIEIFVHGALCMAYSGRCLLSGYINKRDPNQGTCTNACRWEYNVQEGKEDDVGNIVHKYEPIPVQNVEPTLGIGAPTDKVFMIEEAQRPGEYMTAFEDEHGTYIMNSKDLRAIAHVERLTKMGVHSLKIEGRTKSFYYCARTAQVYRKAIDDAAAGKPFDTSLLETLEGLAHRGYTEGFLRRHTHDDYQNYEYGYSVSDRQQFVGEFTGERKGDLAAVAVKNKFSVGDSLELMTPQGNINFTLEHMENAKGEAMPIAPGDGYTVWLPVPQDLELNYALLMRNFSGETTRNPHGK”, the “total protein half-life in vivo” value runs as follows: under setting [1], 2.98 ± 0.19 h; under setting [2], 1.94 ± 0.45 h; under setting [3], 1.96 ± 0.29 h; under setting [4], 2.01 ± 0.14 h; under setting [5], 1.77 ± 0.092 h; under setting [6], 2.77 ± 0.029 h. The “total protein half-life in vivo” value reads like this: under setting [7], 3.68 ± 0.062 h; under setting [8], 5.83 ± 0.49 h; under setting [9], 1.91 ± 0.17 h; under setting [10], 2.5 ± 0.0042 h; under setting [11], 4.1 ± 0.069 h; under setting [12], 7.89 ± 0.33 h.

Regarding “MNVNSSSNRGEAILAALKTQFPGAVLDEERQTPEQVTITVKINLLPDVVQYLYYQHDGWLPVLFGNDERTLNGHYAVYYALSMEGAEKCWIVVKALVDADSREFPSVTPRVPAAVWGEREIRDMYGLIPVGLPDQRRLVLPDDWPEDMHPLRKDAMDYRLRPEPTTDSETYPFINEGNSDARVIPVGPLHITSDEPGHFRLFVDGEQIVDADYRLFYVHRGMEKLAETRMGYNEVTFLSDRVCGICGFAHSVAYTNSVENALGIEVPQRAHTIRSILLEVERLHSHLLNLGLSCHFVGFDTGFMQFFRVREKSMTMAELLIGSRKTYGLNLIGGVRRDILKEQRLQTLKLVREMRADVSELVEMLLATPNMEQRTQGIGILDRQIARDLRFDHPYADYGNIPKTLFTFTGGDVFSRVMVRVKETFDSLAMLEFALDNMPDTPLLTEGFSYKPHAFALGFVEAPRGEDVHWSMLGDNQKLFRWRCRAATYANWPVLRYMLRGNTVSDAPLIIGSLDPCYSCTDRVTLVDVRKRQSKTVPYKEIERYGIDRNRSPLK”, the “total protein half-life in vivo” value reads like this: under setting [1], 7.09 h; under setting [3], 5.63 h; under setting [9], 5.27 h.

As to “MKVGFIGLGIMGKPMSKNLLKAGYSLVVADRNPEAIADVIAAGAETASTAKAIAEQCDVIITMLPNSPHVKEVALGENGIIEGAKPGTVLIDMSSIAPLASREISEALKAKGIDMLDAPVSGGEPKAIDGTLSVMVGGDKAIFDKYYDLMKAMAGSVVHTGEIGAGNVTKLANQVIVALNIAAMSEALTLATKAGVNPDLVYQAIRGGLAGSTVLDAKAPMVMDRNFKPGFRIDLHIKDLANALDTSHGVGAQLPLTAAVMEMMQALRADGLGTADHSALACYYEKLAKVEVTR [P0ABQ2]”, the “total protein half-life in vivo” value reads like this: under setting [1], 3.86 ± 0.51 h; under setting [2], 3.02 ± 0.079 h; under setting [3], 3.5 ± 0.65 h; under setting [4], 3.57 ± 0.23 h; under setting [5], 2.9 ± 0.15 h; under setting [6], 2.9 ± 0.065 h. The “total protein half-life in vivo” value is 5.47 ± 0.28 h under setting [7]; 9.56 ± 1 h under setting [8]; 3.13 ± 0.46 h under setting [9]; 4.13 ± 0.28 h under setting [10]; 5.31 ± 0.075 h under setting [11]; 10.3 ± 0.15 h under setting [12].

As to “MKKIICLVITLLMTLPVYAKLTAHEEARINAMLEGLAQKKDLIFVRNGDEHTCYEAVSHLRLKLGNTRNRIDTAEQFIDKVASSSSITGKPYIVKIPGKSDENAQPFLHALIAQTDKTVPAEGN”, the “total protein half-life in vivo” value under setting [8] turned out to be 3.18 h.

Take “MSESLSWMQTGDTLALSGELDQDVLLPLWEMREEAVKGITCIDLSRVSRVDTGGLALLLHLIDLAKKQGNNVTLQGVNDKVYTLAKLYNLPADVLPR”: the “total protein half-life in vivo” value under setting [1] worked out at 6.59 ± 0.72 h; the “total protein half-life in vivo” value under setting [3] was 6.39 ± 0.34 h; the “total protein half-life in vivo” value under setting [4] was found to be 5.57 ± 0.6 h; the “total protein half-life in vivo” value under setting [5] amounted to 5.75 ± 0.51 h; the “total protein half-life in vivo” value under setting [6] stood at 2.98 ± 0.28 h; the “total protein half-life in vivo” value under setting [7] is 5.387 ± 0.018 h. Further, the “total protein half-life in vivo” value runs as follows: under setting [8], 10.9 ± 4.8 h; under setting [9], 4.86 ± 0.53 h; under setting [10], 10.2 h; under setting [11], 5.332 ± 0.016 h; under setting [12], 11.9 ± 0.66 h.
